Patent US20250206839A1, “METHODS, COMPOSITIONS AND USES FOR SEMA7A MONOCLONAL ANTIBODIES” (THE REGENTS OF THE UNIVERSITY OF COLORADO, A BODY CORPORATE, priority 2022, published 2025)

Target: T1, purified SEMA7A (Homo sapiens, UniProt O75326)
T1 construct: Fc; made in house; host or cells: cells stably transfected with SEMA7A-Fc plasmid (human breast cancer cells); purified from medium
T1 sequence (O75326 45-648 limits assumed): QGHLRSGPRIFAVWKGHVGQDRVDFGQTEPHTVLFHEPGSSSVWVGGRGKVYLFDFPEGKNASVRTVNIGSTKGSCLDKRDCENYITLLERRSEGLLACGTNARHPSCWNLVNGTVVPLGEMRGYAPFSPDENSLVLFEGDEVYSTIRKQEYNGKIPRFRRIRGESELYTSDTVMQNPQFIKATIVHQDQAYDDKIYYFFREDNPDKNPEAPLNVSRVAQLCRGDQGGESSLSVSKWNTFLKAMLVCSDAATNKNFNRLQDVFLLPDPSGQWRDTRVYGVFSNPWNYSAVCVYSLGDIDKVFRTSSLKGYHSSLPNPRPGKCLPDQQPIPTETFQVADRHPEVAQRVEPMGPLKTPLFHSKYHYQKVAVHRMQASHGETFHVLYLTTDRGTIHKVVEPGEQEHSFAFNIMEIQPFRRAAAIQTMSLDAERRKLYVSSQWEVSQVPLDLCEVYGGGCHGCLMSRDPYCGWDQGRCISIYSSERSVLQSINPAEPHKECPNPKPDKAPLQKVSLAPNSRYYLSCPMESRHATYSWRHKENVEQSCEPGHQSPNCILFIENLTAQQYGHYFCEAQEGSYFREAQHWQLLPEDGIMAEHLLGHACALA
Test: ELISA binding to purified SEMA7A
Method: The MultiSorp ELISA 96 well ELISA plate (Thermo Scientific) was coated with 100 μl per well of 50 μg/ml of purified SEMA7A in Coating Buffer A (Thermo Scientific CB07100) and allowed to attach overnight with gentle rocking at 4 degrees. For the peptide competition, half of the antibody was incubated in an Eppendorf tube overnight at a ratio of 1:10 with the SEMA7A peptide on a rotator at 4 degrees. The plate was washed with 200 μl per well of 1× wash buffer (Thermo Scientific WB01) and blocked with 200 μl 1× assay buffer (Thermo Scientific DS98200) for 2 hours and room temp with gentle rocking. 1× assay buffer was removed and a 200 μl serial dilution of SMEA7A mAb in 1× assay buffer was made from columns 1 through 9, with column 10-12 getting 1× assay buffer only. The plate was incubated overnight with gentle rocking at 4 degrees. The plate was washed twice with 200 μl of 1× wash buffer. 100 μl of 200 ng/ml Goat Anti-Mouse IgG HRP (Abcam 97040) in 1× assay buffer was added to columns 1-11, with column 12 getting 1× assay buffer only. The plate was incubated for 2 hours with gentle rocking at room temp. The plate was washed four times with 200 μl 1× wash buffer. 150 μl SuperSignal Femto for ELISA (Thermo Scientific) was mixed 1:1 added to each well and mixed for 1 min and then left to rock at room temperature for 30 minutes. The absorbance was read at 425 nm on a microplate reader.

B1: recombinant anti-SEMA7A monoclonal antibody: recombinant anti-SEMA7A monoclonal antibody; illustrative recombinant heavy chain SEQ ID NO: 28, light chain SEQ ID NO: 29 (antibody)
heavy: EVQLQQSGTVLARPGASVKMSCKASGYSFTSYWMHWVKQRPGQGLEWIGAIYPGNSDTSYNQKFKGKAKLTAVTSASTAYMELSSLTNEDSAVYYCTRGGAPTMITAYYAMDYWGQGTSVTVSSAKTTPPSVYPLAPGSAAQTNSMVTLGCLVKGYFPEPVTVTWNSGSLSSGVHTFPAVLQSDLYTLSSSVTVPSSTWPSETVTCNVAHPASSTKVDKKIVPRDCGCKPCICTVPEVSSVFIFPPKPKDVLTITLTPKVTCVVVDISKDDPEVQFSWFVDDVEVHTAQTQPREEQFNSTFRSVSELPIMHQDWLNGKEFKCRVNSAAFPAPIEKTISKTKGRPKAPQVYTIPPPKEQMAKDKVSLTCMITDFFPEDITVEWQWNGQPAENYKNTQPIMDTDGSYFVYSKLNVQKSNWEAGNTFTCSVLHEGLHNHHTEKSLSHSPGK
light: DIQMTQTTSSLSASLGDRVTISCRASQDISNYLNWYQQKPDGTVKLLIYYTSRLHSGVPSRFSGSGSGTDYSLTISNLEQEDIATYFCQQGNTLPWTFGGGTKLEIKRADAAPTVSIFPPSSEQLTSGGASVVCFLNNFYPKDINVKWKIDGSERQNGVLNSWTDQDSKDSTYSMSSTLTLTKDEYERHNSYTCEATHKTSTSPIVKSFNRNEC
binding to purified SEMA7A in presence of immunizing peptide (10× immunizing peptide): blocked this ability | binding to purified SEMA7A (serial dilution): bound to purified SEMA7A in a dose dependent manner
